The values that follow come from US20260144854A1 (UNIVERSITY OF CHICAGO, published 2026).

The term Kd denotes the constant that tells how readily two partners part at equilibrium. A low value points to higher affinity.

For data set [1], the target named is T1, full length recombinant CD95 protein (FL-CD95), P25445.
T1 chain: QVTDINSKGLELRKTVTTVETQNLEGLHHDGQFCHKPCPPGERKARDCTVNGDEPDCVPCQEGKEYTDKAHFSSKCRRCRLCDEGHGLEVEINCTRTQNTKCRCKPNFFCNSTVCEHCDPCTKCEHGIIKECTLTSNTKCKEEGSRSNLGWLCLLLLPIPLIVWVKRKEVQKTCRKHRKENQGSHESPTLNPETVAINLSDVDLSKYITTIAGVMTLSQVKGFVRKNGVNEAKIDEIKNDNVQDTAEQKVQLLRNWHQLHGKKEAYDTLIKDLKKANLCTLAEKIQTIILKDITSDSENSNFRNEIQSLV

Data set [2] deals with alpha-1-anti-trypsin (A1AT), P01009.
alpha-1-anti-trypsin (A1AT), P01009, sequence (P01009 whole entry, looked up, the tested form may be a part): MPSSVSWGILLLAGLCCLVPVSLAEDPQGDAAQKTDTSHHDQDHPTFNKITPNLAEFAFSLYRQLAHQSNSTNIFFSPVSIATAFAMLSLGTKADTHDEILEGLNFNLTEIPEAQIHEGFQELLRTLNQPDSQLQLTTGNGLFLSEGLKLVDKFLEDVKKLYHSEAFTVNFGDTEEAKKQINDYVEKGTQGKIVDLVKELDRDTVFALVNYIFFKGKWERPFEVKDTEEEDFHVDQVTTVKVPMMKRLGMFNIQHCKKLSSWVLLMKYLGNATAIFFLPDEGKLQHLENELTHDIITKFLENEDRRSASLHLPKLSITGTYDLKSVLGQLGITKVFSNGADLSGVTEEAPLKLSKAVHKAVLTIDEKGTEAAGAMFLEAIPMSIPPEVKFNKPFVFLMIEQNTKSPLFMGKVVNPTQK
Data set [3] deals with T2, C-terminal domain of CD95 (amino acids 157-320; C-CD95), P25445.
T2 chain: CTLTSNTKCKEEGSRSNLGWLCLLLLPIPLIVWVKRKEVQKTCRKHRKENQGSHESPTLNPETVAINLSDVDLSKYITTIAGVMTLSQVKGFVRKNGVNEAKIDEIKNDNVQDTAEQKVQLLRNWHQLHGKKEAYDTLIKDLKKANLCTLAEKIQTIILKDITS

For data set [4], the target named is T3, human neutrophil elastase (ELANE) (human, UniProt P08246 30-247).
T3 construct: Native protein: in human PMN conditioned media in the co-immunoprecipitation, purified native ELANE (Abcam) in the enzyme and cleavage assays; also called human ELANE
T3 sequence: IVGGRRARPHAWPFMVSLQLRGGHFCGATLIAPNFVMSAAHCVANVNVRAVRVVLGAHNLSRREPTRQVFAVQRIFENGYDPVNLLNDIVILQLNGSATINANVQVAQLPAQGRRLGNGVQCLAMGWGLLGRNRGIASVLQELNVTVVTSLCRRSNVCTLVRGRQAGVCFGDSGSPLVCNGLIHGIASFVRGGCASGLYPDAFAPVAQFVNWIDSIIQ
Description: from the inventors' studies of ECP as allosteric activator of ELANE (chromogenic substrate kinetics, FIG. 7); method of the KD not stated.

Data set [5] deals with T4, human neutrophil elastase (ELANE).
T4 chain: T3 sequence

B1: proteinase 3 (PRTN3) (protein)
chain: IVGGHEAQPHSRPYMASLQMRGNPGSHFCGGTLIHPSFVLTAAHCLRDIPQRLVNVVLGAHNVRTQEPTQQHFSVAQVFLNNYDAENKLNDVLLIQLSSPANLSASVATVQLPQQDQPVPHGTQCLAMGWGRVGAHDPPAQVLQELNVTVVTFFCRPHNICTFVPRRKAGICFGDSGGPLICDGIIQGIDSFVIWGCATRLFPDFFTRVALYVDWIRSTLR
Take B1: the “degradation of purified CD95” value in data set [1] was “cleaved purified CD95 with an identical degradation pattern to ELANE”.

B2: human neutrophil elastase (ELANE) (protein)
chain: T3 sequence
Turning to B2, in data set [2], the “ELANE catalytic activity (chromogenic substrate assay)” value was “loss of ELANE catalytic activity was confirmed by a chromogenic substrate assay”. Also, the “degradation by SDS-PAGE followed by coomassie blue staining” value in data set [3] was “ELANE preferentially cleaves the C-terminal domain of CD95”. Besides, the “degradation of purified CD95” value in data set [1] was “ELANE degrades the C-terminal domain of purified CD95”.

B3: murine neutrophil elastase (mELANE) (protein)
chain: IVGGRPARPHAWPFMASLQRRGGHFCGATLIARNFVMSAAHCVNGLNFRSVQVVLGAHDLRRQERTRQTFSVQRIFENGFDPSQLLNDIVIIQLNGSATINANVQVAQLPAQGQGVGDRTPCLAMGWGRLGTNRPSPSVLQELNVTVVTNMCRRRVNVCTLVPRRQAGICFGDSGGPLVCNNLVQGIDSFIRGGCGSGLYPDAFAPVAEFADWINSIIRSHNDHLLTHPKDREGRTN
As to B3, in data set [1], the “degradation of purified CD95” value is recorded as “cleaved purified CD95 with an identical degradation pattern to ELANE”.

B4: eosinophil cationic protein (ECP) (enzyme)
chain: RPPQFTRAQWFAIQHISLNPPRCTIAMRAINNYRWRCKNQNTFLRTTFANVVNVCGNQSIRCPHNRTLNNCHRSRFRVPLLHCDLINPGAQNISNCTYADRPGRRFYVVACDNRDPRDSPRYPVVPVHLDTTI
notes: also called ribonuclease 3
For the molecule B4, the Kd in data set [4] is around 20 nM. Also, the “kcat of ELANE for its substrate (chromogenic substrate activity assay)” value in data set [5] is reported as “increases kcat for its substrate by 12-fold without altering KM”.

B5: cathepsin G (CTSG) (protein)
chain: IIGGRESRPHSRPYMAYLQIQSPAGQSRCGGFLVREDFVLTAAHCWGSNINVTLGAHNIQRRENTQQHITARRAIRHPQYNQRTIQNDIMLLQLSRRVRRNRNVNPVALPRAQEGLRPGTLCTVAGWGRVSMRRGTDTLREVQLRVQRDRQCLRIFGSYDPRRQICVGDRRERKAAFKGDSGGPLLCNNVAHGIVSYGKSSGVPPEVFTRVSSFLPWIRTTMRS
For the molecule B5, the “degradation of purified CD95” value in data set [1] is reported as “cleaved purified CD95 with an identical degradation pattern to ELANE”.
